One block for each substance: values may come before it.
Assays:
Sth1BD (S. cerevisiae) = Sth1BD (S. cerevisiae) (UniProt P32597); experiment: ITC; MicroCal ITC200, 20 °C, 25 mM Tris-HCl pH 8.0, 150 mM NaCl; peptides at 2.0 mM in the syringe titrated into reader domain at 0.1-0.2 mM in the cell; one-binding-site model
[1] = biological target: H3K14ac peptide (Saccharomyces cerevisiae) (UniProt P61830); conditions: cited from earlier work
[2] = biological target: H3K9cr peptide (Saccharomyces cerevisiae) (UniProt P61830); conditions: cited from earlier work
[3] = biological target: H3K9ac peptide (Saccharomyces cerevisiae) (UniProt P61830); conditions: cited from earlier work

Taf14 YEATS, sequence (P35189 1-137): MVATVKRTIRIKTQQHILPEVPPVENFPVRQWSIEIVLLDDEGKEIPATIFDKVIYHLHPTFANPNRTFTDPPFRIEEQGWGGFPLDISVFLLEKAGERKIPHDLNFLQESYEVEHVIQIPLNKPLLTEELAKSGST
Sth1BD (S. cerevisiae), sequence (P32597 1248-1359): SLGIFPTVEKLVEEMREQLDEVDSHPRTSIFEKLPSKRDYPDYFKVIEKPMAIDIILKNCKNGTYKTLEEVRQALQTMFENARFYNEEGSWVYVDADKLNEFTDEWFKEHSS
Sth1 Bromodomain, sequence (P32597 1254-1359): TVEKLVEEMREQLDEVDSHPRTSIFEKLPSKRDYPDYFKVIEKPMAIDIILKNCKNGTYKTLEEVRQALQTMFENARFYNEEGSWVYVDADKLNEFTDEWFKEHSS

Kd (Sth1BD (S. cerevisiae)): 89 µM
Substance: H3K14bz peptide

Substance: Sth1 Bromodomain (from UniProt P32597)
Kd [1]: 16 µM

Substance: Taf14 YEATS (from UniProt P35189)
Kd [2]: 75 µM | Kd [3]: 334 µM

— PMC8927147, “Global profiling of regulatory elements in the histone benzoylation pathway” (Nature Communications, 2022)
